# Source: patent publication US12673985B2, “Method for the treatment or prophylaxis of cancer by targeting the extracellular portion of keratin 14 (KRT14) residing on cancer cells” (Hudson Institute of Medical Research, priority 2019, dated 2026)
# Entries after “also recorded” stand apart in the source; their conditions may differ.
# System: Murine ID8 ovarian tumour
# Assay: Treatment of established primary ID8 ovarian tumours in syngeneic mouse model
# Type: in vivo, C57BL/6 mice
# Details: 5 mg/kg i.p. bi-weekly for 3 weeks
# Experimental: Mice with primary tumours (n=10/group) received mAb AN-17 at 5 mg/kg by intraperitoneal injection bi-weekly, for a period of 3 weeks. Control animals received an equivalent dose of isotype-matched control IgG kappa antibody (Control Group 1); or and equivalent volume of vehicle (PBS) alone (Control Group 2). Following 3 weeks of bi-weekly treatment (Mondays and Thursdays), all mice were culled and assessed for tumour size and weight. Two additional, non-tumour bearing animals were used as non-surgical controls.
molecule,measurement,setting,value
"mAb AN-17: monoclonal anti-KRT14 antibody; heavy chain variable region SEQ ID NO:3, light chain variable region SEQ ID NO:5 (clone AN-17A RG4.E5b.A7.B4) (antibody, listed as Mus musculus, V domains shown) VH: QVQLKESGPGLVAPSQSLSITCTVSGFSLSRYSVHWVRQPPGKGLEWLGMIWGGGSTDYNSALKSRLSISKDNSKSQVFLKMNSLQTDDTAMYYCARKDYGYSYFDYWGQGTTLTVSS VL: DVLMTQTPLSLPVSLGDQASISCRSSQSIVHSNGNTYLEWYLQKPGQSPKLLIYKVSNRFSGVPDRFSGSGSGTDFTLKISRVEAEDLGVYYCFQGSHVPFTFGSGTKLEIKRADAAPTVS",adverse effects during treatment,,had no observable adverse effects on animals; also recorded: no adverse effects noted during the treatment period
same,primary ovarian tumours at cull / tumour progression,n=10/group,no tumours could be identified; also recorded: complete regression
